# ± gives the uncertainty stated by the source.
# Assay: amyloid nucleation score (Sup35N fusion, yeast selection) (log enrichment); library NNK3; higher = more nucleation; inactive = no reads after selection
# Procedure, shortened: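 Three technical output replicates were used for random libraries. Psi-negative yeast expressing peptides of 20 random codons fused to Sup35N were induced with 100 μM copper sulfate for 24 hours and grown 7 days at 30°C on medium lacking adenine and uracil, and input and output plasmid inserts were Illumina-sequenced, excluding sequences with under 100 input reads. The nucleation score is the DiMSum log enrichment of output over input reads, centred on the mode score of non-aggregating sequences.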
row,Substance,amyloid nucleation score
1,PAGWGWSCCFDFLSSISKIY,inactive
2,PAPMSVFRHVNFFVKFSPSS,inactive
3,PASLTRDVTMCFQNRWDPLR,inactive
4,PATLQSPISSK,inactive
5,PATMFI,inactive
6,PAVPLQSNLRRETTFRAGCL,inactive
7,PCLSMRSNLRGYTWWSVGGY,1.11 ± 0.14
8,PDKVWMYCQHICAVKMSLIC,inactive
9,PELCQCSHCNLLFLWTYYIA,-0.052 ± 0.98
10,PELVFPMLADRPVRAQKLPC,inactive
11,PETWDTRCGV,0.03 ± 0.88
12,PFCVMDLSIKWGNMYYFLQT,inactive
13,PFFCTMITYNGLVYDIFWRG,inactive
14,PFHGSLDWSTTESAMT,inactive
15,PFNRVVVHSDAARGCRPCRP,inactive
16,PFRFVKNLCGATG,inactive
17,PFWSGMIPIIEDPISGAL,inactive
18,PGGKVANESMQSSTHDDPGR,inactive
19,PGKGKELSRASGSRATV,inactive
20,PGKKL,-0.453 ± 1.4
21,PGRGLMRLYCYRFEIKTTEP,0.82 ± 0.23
22,PGSHNS,inactive
23,PGVTSMSLSYPGFWVSPS,inactive
24,PHGNVLVLYDKRVLSCVEWN,0.428 ± 0.46

row,Substance,amyloid nucleation score
1,PHMQCLINF,inactive
2,PHSYA,inactive
3,PIAFQRKSSCIKSRESGSVR,inactive
4,PIFWGSSDDYLCRWTLTMCH,-0.3 ± 0.37
5,PIGGLEFNMGFRYRVIRVTM,-0.436 ± 1.7
6,PKEYTRAGNVSSRRGLFYHF,inactive
7,PKTIRDVYVDGEEHVHFRWR,inactive
8,PLCVWVWKLRVVFRRLYFEF,inactive
9,PLFSYLRHSTGCTFAIPNSE,inactive
10,PLGERRTPSYPVASLP,-0.223 ± 0.88
11,PLGSLHSATQRYVSRLGILS,inactive
12,PLHRSE,inactive
13,PLLIAVQWTMTAGCRSHKLL,-0.781 ± 2.5
14,PLNDNRRVPAISVFKECQTS,inactive
15,PLRPKLFFERNGSGYRQNRA,inactive
16,PLSTITDGLMRSLVTLVGHS,inactive
17,PLWTPDGPLIGVVFVLSNNV,1.03 ± 0.15
18,PMKFQVFGVSQGVR,inactive
19,PMVISHMGLFFLKVGISR,inactive
20,PMYTMRVWLMMSS,inactive
21,PNAIILVQYTYIVGMRGGHS,1.11 ± 0.08
22,PNALDRIYSG,inactive
23,PNCVISSLTFRWVIFSECEP,inactive
24,PNHELYM,inactive

row,Substance,amyloid nucleation score
1,PNLYIMYGAFKIVLHSPDWG,inactive
2,PNVLLIRVLIERSCKVGWNS,inactive
3,PPPCKYLPAEVGLLFKSSLG,inactive
4,PQDKRASACRVWAPNKNGRG,inactive
5,PRASYMGRSKL,inactive
6,PRDGVFLVKGDRPC,inactive
7,PRDNILTPQHV,inactive
8,PRFMKVRRWYSNLM,inactive
9,PRFYANRFTVLFLYNLDI,-0.227 ± 1.1
10,PRISQEDVFARTARVDLGLQ,inactive
11,PRNRSVGKMLTRINNSFSRA,inactive
12,PRRMHMGHAVFDIMGTLRSK,0.9 ± 0.15
13,PRSCN,inactive
14,PRSVLINLLHRTHVCCRLFS,inactive
15,PRSVVMYNNFINWYKTHKYY,1.62 ± 0.067
16,PSCSRSVTMWKSRNLFIQLA,inactive
17,PSDDYGHLVWLTICCNCLD,1.6 ± 0.079
18,PSGTFFNSVVYGRWYKLKRK,-0.34 ± 0.93
19,PSSFKMY,inactive
20,PSTSVPTDMMRFSIYSLLRS,inactive
21,PSVFVRVLEKNRDLMMRTAS,inactive
22,PSVIFRDWFEKMWLDRISVV,inactive
23,PTELYFHPDI,inactive
24,PTHLCFLQFTVAIFVSGIRA,0.851 ± 0.12

row,Substance,amyloid nucleation score
1,PTIHGVMGVEPMSYSLL,inactive
2,PTSKGYVVYKETWVLDRSKM,1.07 ± 0.17
3,PTVQCC,inactive
4,PVDKCRCGGWNLSHLHKLSS,-0.615 ± 1.7
5,PVHGSKGPSGHVCRQCGFLM,inactive
6,PVMLGYGMGYSATVVKGCCL,inactive
7,PVQRTLVRAVSESFR,0.899 ± 0.13
8,PVRIEYQ,inactive
9,PVRSR,inactive
10,PVSICQFIVSMANFDLCSQG,1.93 ± 0.068
11,PVTVFWVTMTSWYVNIRG,inactive
12,PVYGRIKANLKMGLAGGSWV,inactive
13,PWALTMRNVLSKYMFGGGLR,inactive
14,PWDWWVDSACWRRRPVDDPR,inactive
15,PWKCTWFMALEVFRMYLRSF,inactive
16,PYARRMWHGVLVRDIGLYTR,inactive
17,PYCNRWFSDRGSWDVHRSWV,inactive
18,PYFQFGSSCE,inactive
19,PYGKFRLNPLD,0.652 ± 0.17
20,PYLLMWSA,inactive
21,PYMWGFIKRWNRNCAGSFAL,inactive
22,QAKGIRYVGGLTWYNH,inactive
23,QCHSLYSWNDGWC,inactive
24,QCSDVLYY,inactive

row,Substance,amyloid nucleation score
1,QCSIFIIC,2.41 ± 0.076
2,QCSWLCIWMGVYLTLILSCA,0.805 ± 0.17
3,QCTASLEHHFVNNQDNASAW,inactive
4,QDAMSTEVEGTF,inactive
5,QDHDVSYSSCPGYSVMVMEG,-0.399 ± 0.8
6,QDLTLLCVSIWWKLGWSESR,inactive
7,QDTLYMLDPGG,-0.318 ± 0.7
8,QDYTWVFEVSWAPKGGNLNV,inactive
9,QERTKSFWPLLLALALPSDQ,inactive
10,QFIDRNVWLISSGFRTRFDI,inactive
11,QFLIVGFAYLPSLA,inactive
12,QFLKGDCRYLDPGMDLDRG,inactive
13,QFSSS,-1.13 ± 1.3
14,QFSVCCCRHLPLYMTKAVIA,inactive
15,QFVASELYVIGFTAVWLGCI,0.902 ± 0.2
16,QGNCLFVKVG,inactive
17,QHAQGYLRGSTMYFEMM,0.357 ± 0.25
18,QHKQVNGFTITYTLGHCYTY,inactive
19,QHSGRWCGAPALGNLVAMSS,inactive
20,QHSSLKWYLYDYRFLLYTVL,-0.562 ± 0.5
21,QHTGGVLRRTMFINRVSRRM,inactive
22,QHYLVYY,inactive

# Reference: the supplement of paper PMC12042874
